Measurements reported in patent US11123413B2, “Carbapenemases for use with antibiotics for the protection of the intestinal microbiome” (priority 2015, dated 2021).

B1: P2A: broad spectrum carbapenemase, class B metallo-enzyme requiring zinc, SEQ ID NO: 37; P2A-21 = product of strain SYT-PP0602-21 (protein)
chain: ETGTISISQLNKNVWVHTELGYFNGEAVPSNGLVLNTSKGLVLVDSSWDNKLTKELIEMVEKKFQKRVTDVIITHAHADRIGGITALKERGIKAHSTALTAELAKNSGYEEPLGDLQTITSLKFGNTKVETFYPGKGHTEDNIVVWLPQYQILAGGCLVKSAEAKDLGNVADAYVNEWSTSIENVLKRYGNINSVVPGHGEVGDKGLLLHTLDLLK
B2: NDM: New Delhi metallo-β-lactamase NDM-1; NDM-68 = product of strain STY-NP1602-68 (STII Δ35, N-terminal GQQMETG) (protein)
chain: GQQMETGDQRFGDLVFRQLAPNVWQHTSYLDMPGFGAVASNGLIVRDGGRVLVVDTAWTDDQTAQILNWIKQEINLPVALAVVTHAHQDKMGGMDALHAAGIATYANALSNQLAPQEGMVAAQHSLTFAANGWVEPATAPNFGPLKVFYPGPGHTSDNITVGIDGTDIAFGGCLIKDSKAKSLGNLGDADTEHYAASARAFGAAFPKASMIVMSHSAPDSRAAITHTARMADKLR

Key:
[1] = P2A stability in human chyme (CENTA); format: in vitro ADME
Protocol: The stability of purified P2A when incubated in human chyme at 37° C. was evaluated by assessing aliquots withdrawn from incubated samples at 0, 0.5, 1, 2, 3, 4, 5, and 6 hours for beta-lactamase activity using a CENTA beta-lactamase substrate. Five different chyme specimens were used for evaluation of stability. The mixed chyme sample contained equal volumes of each of the five chime specimens mixed together. Chyme samples were characterized for pH, liquid content, and protease activity (Table 20).

[2] = P2A enteric-coated pellets and intravenous cefotaxime in jejunal-fistulated dogs; format: in vivo, laboratory beagles; details: enteric-coated pellets, 0.5 mg/kg or 0.25 mg/kg P2A, intravenous cefotaxime 120 mg/kg
Protocol: An enteric-coated pellet formulation of P2A was produced using methods similar to that used successfully for the production of the P1A enteric-coated pellets (e.g. sucrose core particles, pH-dependent polymer Eudragit L 30 D-55 coating, see Tarkkanen, Antimicrobial Agents and Chemotherapy, June 2009, p. 2455-2462, the entire contents of which are hereby incorporated by reference).
The ability of P2A to degrade cefotaxime in the dog intestinal tract was evaluated using laboratory beagles that had permanent jejunal fistulas. The fistulas allowed the repeated collection of jejunal chyme specimens from these animals. Dogs were treated with peroral P2A enteric-coated pellets at two doses, 0.5 mg/kg or 0.25 mg/kg of P2A content and/or intravenous cefotaxime (120 mg/kg). The dosing was performed twice. Animals were fed 20 minutes before P2A was delivered orally. Each animal received 3-5 P2A capsules, dependent on the P2A dose and the body weight. Cefotaxime was delivered intravenously 10 minutes after P2A administration. […] Cefotaxime levels in chyme were measured using a plate diffusion method using cefotaxime susceptible Micrococcus luteus TS504 as the test strain. P2A activity levels in chyme were determined spectrophotometrically using meropenem as a substrate. Meropenem hydrolysis was monitored at a wavelength of 297 nm.

[3] = Proteolytic cleavage of NDM in 2% human chyme or porcine pancreatic elastase, N-terminal sequencing of fragments; format: in vitro ADME; details: 500 ug/mL in 2% mixed human chyme
Protocol: The loss of NDM activity upon incubation with human chyme was due to the proteolytic cleavage of NDM by endogenous proteases present in human chyme. To map the cleavage sites within the NDM protein, NDM ([…]) was incubated with 2% mixed human chyme (human chyme diluted with incubation buffer, 20 mM Hepes pH 6.2; 150 mM NaCl, 100 uM ZnSO4) for times ranging from 0 to 180 minutes. Twenty microliters of each sample (1 ug) was removed and transferred to 20 μL of 2× denaturing sample buffer for a final concentration of 25 ng/μL. The samples were boiled and 10 μL (250 ng of NDM) was subjected to analysis by SDS-PAGE. NDM was rapidly degraded, in 0-15 minutes, into 5 distinct cleavage fragments (FIG. 26). […]
To map the proteolytic cleavage sites of the NDM fragments, NDM was incubated with 2% mixed human chyme as described for 0 or 15 minutes. […] The NDM digestions were analyzed by SDS/PAGE, the gel equilibrated in 1× Tris-Glycine transfer buffer and the proteins were transferred to an equilibrated Sequi-Blot PVDF membrane by wet transfer in Tris-glycine buffer. […] The isolated fragments were analyzed by N-terminal sequencing of the first 5 amino acids using a Perkin Elmer Applied Biosystems Model 494 Procise protein/peptide sequencer with an on-line Perkin Elmer Applied Biosystems Model 140C PTH Amino Acid Analyzer. […]

[4] = NDM in dilutions of mixed human chyme with and without protease inhibitors (SDS-PAGE, CENTA); format: in vitro ADME; details: 30 minutes
Protocol: NDM activity was lost immediately upon incubation in the mixed human chyme (FIG. 24). To determine if the loss in activity was due to digestion by proteases present in the human chyme, purified NDM (100 ug/ml) was incubated for 30 minutes with dilutions of human mixed chyme ranging from 100% to 0% chyme in the absence or presence of a serine protease inhibitor cocktail (SigmaFAST protease inhibitors cocktail without EDTA (Sigma-Aldrich catalog number S8830). All incubations were performed in the presence of 100 μM ZnSO4 (final concentration). Samples removed at 30 minutes were transferred to lamelli sample buffer containing beta mercaptoethanol for analysis of protein degradation by gel electrophoreses and staining with coomassie blue. The remaining samples were snap frozen and used for evaluation of beta lactamase activity using a CENTA substrate (FIG. 25). […] In addition, most of the activity of NDM was retained at chyme dilutions of 3.13% or less (FIG. 25, panel A). In the presence of protease inhibitors, the majority of the NDM activity was retained at chyme dilutions of 50% or less.

Molecule	activity in chyme 3 sample ([1]; chyme 3 (pH 5.6))	stability in pH-adjusted chyme 3 ([1]; chyme 3 adjusted to pH 7.0 using NaOH)	beta-lactamase activity in individual chyme samples ([1]; five individual human chyme samples, 100 uM ZnSO4)	beta-lactamase activity in mixed chyme without additional zinc ([1]; mixed human chyme, no added zinc, 37° C.)	cefotaxime degradation in the intestinal tract [2]	overall cefotaxime levels in chyme [2]	time at which protein and fragments were undetectable [3] [min]	time of degradation into 5 distinct cleavage fragments [3] [min]	chyme dilution at which the majority of the activity was retained ([4]; in the presence of protease inhibitors) [%]	chyme dilution at which most of the activity was retained ([4]; without protease inhibitors) [%]	chyme dilution at which intact protein could be detected ([4]; without protease inhibitors, SDS-PAGE) [%]
B1	rapidly declined	improved	relatively stable in four of five individual chyme samples	declined more rapidly	degraded cefotaxime	lower overall levels of cefotaxime in their chyme					
B2							60 to 90	0 to 15	≤ 50	≤ 3.13	≤ 6.25
